# Test results taken from US20260116991A1 (HAINAN SIMCERE ZAIMING PHARMACEUTICAL, published 2026).
# Residue numbers refer to the chain shown, from its start.
# B1: F4.21.16 (antibody, human IgG1, kappa, V domains shown)
# VH: DVQLQESGPGLVKPSQSLSLTCSVTGYSITSGYYWNWIRQFPGNKLEWMGYISYDVTVNYNPSLKNRISITRDTSKNQFFLKLNSVTTEDTATYYCATITSVASMDHWGQGTSVTVSS
# VL: DILMTQTPLSLPVSLGDQASISCRSSQNIVHRNGNTYLEWYLQKPGQSPKLLLYKVSNRFSGVPDRFSGSGSGTDFTLKISRVEAEDLGIYYCFQGSHFPFTFGSGTKLEIKR
# notes: human-murine chimeric antibody
# B2: F3.54.12 (antibody, human IgG1, kappa, V domains shown)
# VH: QVQLQQSGAELVRPGASVKLSCKASGYTFTDYEMHWVKQTPVHGLEWIGAIDPETGNTAYIQKFKGKATLTTDKSSSTAYMELRSLTSEDSAVYYCTRFYSYSHWGQGTTLTVSS
# VL: DVVMTQTPLSLPVSLGDQASISCRSSQSLVHSNGNTYLHWYLQKPGQSPKLLIYKVSNRFSGVPDRFSGSSSGTDFTLKISRVEAEDLGVYFCSQNTHVPPTFGGGTKLEIKR
# notes: as for B1
# B3: F3.81.19 (antibody, human IgG1, kappa, V domains shown)
# VH: B2 VH with A50T, I61N, T72A, F99P, Y102L, S103T, H104Y, T110L, L111V, S115A
# VL: DVLLTQTPLSLPVSLGDQASISCRSSQSFVHSNGDTYLQWYLQKPGQSPKLLIYKVSNRFSGVPDRFSGSGSGTDFTLKISRVEAEDLGVYYCFQGSHVPYTFGSGTKLEIKR
# notes: as for B1
# B4: F4.13.7 (antibody, human IgG1, kappa, V domains shown)
# VH: QVQLQQPGAELVKPGASVKLSCKASGYTFTNNWVHWVKQRPGQGLEWTGMIHPDSGSTIYNEKFQSKATLTVDKSSSTAYMQLSSLTSEDSAVYYCARGYYDSSSYYAMDYWGQGTSVTVSS
# VL: NIQMTQTTSSLSASLGDRVTISCSASQGIFNYLNWYQQKPDGTVKLLIYYTSSLHSGVPSRFSGSGSGTDYSLTISNLEPEDIATYYCQQYSKLPWTFGGGTKLEIKR
# notes: as for B1
# B5: F4.18.4 (antibody, human IgG1, kappa, V domains shown)
# VH: QVQLHQSGAEMAKPGASVNLSCKTSGFTFTDYGISWVKQRTRQGLEWIGDIYPRHINIYYNEKFKDKATLTADRSSSTAYMELRSMTSEDSAVYFCARRGTTGRGALDYWGQGTSLTVSS
# VL: DILLTQSPAILSVSPGERVSFSCRASQSIGTSIHWYQQRTNGSPRLLIKYAFESISGIPSRFGGSGSRTDFTLTINSVESEDIADYYCQQTYNWPYTFGGGTKLEIKR
# notes: as for B1
# B6: hAb005LH3L1b (antibody, human IgG1, V domains shown)
# VH: EVQLVQSGAEVKKPGASVKVSCKASGYTFTDYEMHWVRQAPGQGLEWIGAIDPETGNTAYIQKFKGRATLTTDKSTSTAYMELRSLRSDDTAVYYCTRFYSYSHWGQGTTVTVSS
# VL: DIVMTQTPLSLPVTPGEPASISCRSSQSLVHSNRNTYLHWYLQKPGQSPQLLIYKVSNRFSGVPDRFSGSGSGTDFTLKISRVEAEDVGVYYCSQNTHVPPTFGGGTKVEIK
# notes: Humanized F3.54.12
# B7: hAb007LH2L1 (antibody, human IgG1, V domains shown)
# VH: EVQLVQSGAEVKKPGSSVKVSCKASGYTFTDYEMHWVRQAPGQGLEWMGTIDPETGNTAYNQKFKGRVTITADKSTSTAYMELSSLRSEDTAVYYCTRPYSLTYWGQGTLVTVSS
# VL: B6 VL with L29F, R34G, N35D, H39Q, S94F, N96G, T97S, P101Y, G105Q, V109L
# notes: Humanized F3.81.19
# B8: hAb007LH2L1b (antibody, human IgG1, V domains shown)
# VH: B7 VH
# VL: B6 VL with L29F, N35D, H39Q, S94F, N96G, T97S, P101Y, G105Q, V109L
# notes: Humanized F3.81.19
# B9: hAb007LH1L1b (antibody, human IgG1, V domains shown)
# VH: B7 VH with T30S
# VL: B6 VL with L29F, N35D, H39Q, S94F, N96G, T97S, P101Y, G105Q, V109L
# notes: Humanized F3.81.19
# B10: hAb006LH3L1d (antibody, human IgG1, V domains shown)
# VH: B7 VH with M34I, T50A, E54K, K65M, I70L, P99Y, Y100F, L102F, T103A
# VL: B6 VL with S28T, L29F, R34S, H39Q, S94F, N96G, T97S, P101Y, G105Q, V109L
# notes: Humanized F3.38.7
# B11: hAb006LH1L1 (antibody, human IgG1, V domains shown)
# VH: B7 VH with T30S, M34I, T50A, E54K, K65M, P99Y, Y100F, L102F, T103A
# VL: B6 VL with S28T, L29F, R34G, H39Q, S94F, N96G, T97S, P101Y, G105Q, V109L
# notes: Humanized F3.38.7
# B12: hAb006LH2L1a (antibody, human IgG1, V domains shown)
# VH: B7 VH with M34I, T50A, E54K, K65M, P99Y, Y100F, L102F, T103A
# VL: DIVMTQTPLSLPVTPGEPASISCRSSQTFVHSDGNTYLQWYLQKPGQSPQLLIYKVSNRFSGVPDRFSGSGSGTDFTLKISRVEAEDVGVYYCFQGSHVPYTFGQGTKLEIK
# notes: Humanized F3.38.7
# B13: hAb007LH1L1e (antibody, human IgG1, V domains shown)
# VH: B7 VH with T30S
# VL: B12 VL with T28S, D33N, G34V, N35D
# notes: Humanized F3.81.19
# B14: hAb006LH3L1e (antibody, human IgG1, V domains shown)
# VH: B7 VH with M34I, T50A, E54K, K65M, I70L, P99Y, Y100F, L102F, T103A
# VL: B12 VL with D33N, G34V
# notes: Humanized F3.38.7
# B15: hAb006LH2L1 (antibody, human IgG1, V domains shown)
# VH: B7 VH with M34I, T50A, E54K, K65M, P99Y, Y100F, L102F, T103A
# VL: B12 VL with D33N
# notes: Humanized F3.38.7
# B16: hAb007LH1L1d (antibody, human IgG1, V domains shown)
# VH: B7 VH with T30S
# VL: B12 VL with T28S, D33N, G34S, N35D
# notes: Humanized F3.81.19
# B17: hAb007LH1L1 (antibody, human IgG1, V domains shown)
# VH: B7 VH with T30S
# VL: B12 VL with T28S, D33N, N35D
# notes: Humanized F3.81.19
# B18: hAb006LH2L1b (antibody, human IgG1, V domains shown)
# VH: B7 VH with M34I, T50A, E54K, K65M, P99Y, Y100F, L102F, T103A
# VL: B12 VL with D33N, G34A
# notes: Humanized F3.38.7
# B19: hAb007LH1L1c (antibody, human IgG1, V domains shown)
# VH: B7 VH with T30S
# VL: B12 VL with T28S, D33N, G34A, N35D
# notes: Humanized F3.81.19
# B20: hAb006LH1L1b (antibody, human IgG1, V domains shown)
# VH: B7 VH with T30S, M34I, T50A, E54K, K65M, P99Y, Y100F, L102F, T103A
# VL: B12 VL with D33N, G34A
# notes: Humanized F3.38.7
# B21: hAb007LH2L1a (antibody, human IgG1, V domains shown)
# VH: B7 VH
# VL: B12 VL with T28S, N35D
# notes: Humanized F3.81.19
# B22: hAb006LH1L1a (antibody, human IgG1, V domains shown)
# VH: B7 VH with T30S, M34I, T50A, E54K, K65M, P99Y, Y100F, L102F, T103A
# VL: B12 VL
# notes: Humanized F3.38.7
# B23: hAb007LH1L1a (antibody, human IgG1, V domains shown)
# VH: B7 VH with T30S
# VL: B12 VL with T28S, N35D
# notes: Humanized F3.81.19
# B24: hAb006LH3L1a (antibody, human IgG1, V domains shown)
# VH: B7 VH with M34I, T50A, E54K, K65M, I70L, P99Y, Y100F, L102F, T103A
# VL: B12 VL
# notes: Humanized F3.38.7
# B25: F2.154.1 human-murine chimeric antibody (antibody, human IgG1, kappa, V domains shown)
# VH: QVQLQQSGAELVRPGASVKLSCKASGYRFTDYEMHWVKQTPVHGLEWIGTIDPETGNTAYTQKFMDKATLTADKSSSTAYMELRSLTSEDSAVYYCTRGYSFTYWGQGTLATVSA
# VL: B3 VL with L4M, S28N, F29I, D35N, Y54F, Y101F, S105T
# notes: Chimeric
# B26: F3.38.7 human-murine chimeric antibody (antibody, human IgG1, kappa, V domains shown)
# VH: QVQLQQSGAELVRPGASVKLSCKASGYTFTDYEIHWVKQTPVLGLEWIGAIDPKTGNTAYNQKFMGKATLTADKSSTTAYMDLRSLTSEDSAVYYCTRYFSFAYWGQGTLVTVSA
# VL: B3 VL with L4M, S28T, D35N
# notes: Chimeric
# B27: F2.23.8 human-murine chimeric antibody (antibody, human IgG1, kappa, V domains shown)
# VH: B25 VH with R28T, I48F, T50A, N57G, T61N, M65R, D66A, G99F, T103A, A111V
# VL: B2 VL with H39Q, S71G, S81T, N96S, P101Y, G105S
# notes: Chimeric
# B28: F3.81.19 human-murine chimeric antibody (antibody, human IgG1, kappa, V domains shown)
# VH: B25 VH with R28T, T61N, M65K, D66G, G99P, F102L, A111V
# VL: B3 VL
# notes: Chimeric
# B29: F2.39.2 human-murine chimeric antibody (antibody, human IgG1, kappa, V domains shown)
# VH: QVQLQQSGAELVRPGASVKVSCKASGYTFTDYEMHWMKQTPVHGLEWIGANEPETGRSAYDQKFKGKATLTADKSSSTAYMELRSLTSEDSAVYYCTRFYSFAYWGQGTLVTVSA
# VL: B2 VL with S28G, S32N, S71G
# notes: Chimeric
# Molecular target: T1, polypeptide GC3pep (human)
# T1 construct: also called membrane proximal polypeptide GC3pep
# T1 peptide: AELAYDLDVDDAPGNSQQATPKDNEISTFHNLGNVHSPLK
# Test: ELISA, GC3pep coated, antibody 0.001 nM
row,Binder,OD450 nm [OD450 nm]
1,B1,0.04
2,B2,0.09
3,B3,0.05
4,B4,0.08
5,B5,0.04

# Molecular target: T1, polypeptide GC3pep
# Test: ELISA, GC3pep coated, antibody 10 nM;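 note: antibody bound to the coated peptide for 2 h at 37 °C, detected through an HRP-conjugated secondary antibody with TMB colour development stopped by acid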
row,Binder,OD450 nm [OD450 nm]
1,B1,0.04
2,B2,2.8
3,B3,2.88
4,B4,0.04
5,B5,0.03

# Molecular target: T1, polypeptide GC3pep
# Test: ELISA, GC3pep coated, antibody 100 nM;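 note: detection with an HRP-conjugated secondary antibody and TMB substrate, color reaction stopped with HCl before absorbance reading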
row,Binder,OD450 nm [OD450 nm]
1,B1,0.08
2,B2,3.03
3,B3,2.94
4,B4,0.06
5,B5,0.06

# Molecular target: T1, polypeptide GC3pep
# Test: ELISA, GC3pep coated, antibody 0.01 nM;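 note: bound antibody detected with an HRP-conjugated secondary antibody and TMB substrate, color reaction stopped with HCl before reading absorbance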
row,Binder,OD450 nm [OD450 nm]
1,B1,0.04
2,B2,0.33
3,B3,0.05
4,B4,0.04
5,B5,0.04

# Molecular target: T1, polypeptide GC3pep
# Test: ELISA, GC3pep coated, antibody 0.0001 nM
row,Binder,OD450 nm [OD450 nm]
1,B1,0.04
2,B2,0.07
3,B3,0.05
4,B4,0.05
5,B5,0.04

# Molecular target: T1, polypeptide GC3pep
# Test: ELISA, GC3pep coated, antibody 1 nM;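 note: bound antibody detected with an HRP-conjugated secondary antibody and TMB substrate, reaction stopped with HCl, after 2 h binding at 37 °C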
row,Binder,OD450 nm [OD450 nm]
1,B1,0.03
2,B2,2.64
3,B3,1.21
4,B4,0.03
5,B5,0.03

# Molecular target: T2, murine GPC3-His protein (Sino Biological, Cat. No. 50989-M08B) (murine, UniProt Q8CFZ4 25-558)
# T2 construct: Bought protein; also called murine GPC3 protein; mouse GPC3-his protein; not shown: His tag
# Test: ELISA, coated antigen
# T2 sequence (Q8CFZ4 25-558 limits assumed): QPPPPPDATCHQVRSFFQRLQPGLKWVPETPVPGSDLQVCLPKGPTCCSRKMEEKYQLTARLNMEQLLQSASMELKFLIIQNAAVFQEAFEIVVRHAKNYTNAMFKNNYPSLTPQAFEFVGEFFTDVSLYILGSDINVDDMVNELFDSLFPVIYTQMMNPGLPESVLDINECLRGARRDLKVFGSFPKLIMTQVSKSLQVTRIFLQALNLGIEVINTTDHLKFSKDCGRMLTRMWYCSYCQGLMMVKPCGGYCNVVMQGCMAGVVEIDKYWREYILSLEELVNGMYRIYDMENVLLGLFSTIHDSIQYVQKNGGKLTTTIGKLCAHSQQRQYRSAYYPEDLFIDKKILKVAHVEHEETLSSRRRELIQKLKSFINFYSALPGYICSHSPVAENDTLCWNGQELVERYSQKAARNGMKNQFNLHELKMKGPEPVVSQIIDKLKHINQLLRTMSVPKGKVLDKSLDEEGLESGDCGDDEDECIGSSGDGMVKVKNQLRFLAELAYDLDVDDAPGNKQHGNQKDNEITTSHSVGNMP
row,Binder,binding result
1,B6,no binding
2,B7,no binding
3,B8,no binding
4,B9,no binding
5,B10,no binding
6,B11,no binding
7,B12,no binding
8,B13,no binding
9,B14,no binding
10,B15,no binding
11,B16,no binding
12,B17,no binding
13,B18,no binding
14,B19,no binding
15,B20,no binding
16,B21,no binding
17,B22,no binding
18,B23,no binding
19,B24,no binding
20,B25,no binding (tested: 100 nM)
21,B26,no binding (tested: 100 nM)
22,B27,no binding (tested: 100 nM)
23,B28,no binding (tested: 100 nM)
24,B29,no binding (tested: 100 nM)

# Molecular target: T1, polypeptide GC3pep
# Test: ELISA, GC3pep coated, antibody 0.1 nM;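 note: antibody allowed to bind the coated plate 2 h at 37 °C, then detected via HRP-conjugated secondary antibody and TMB development for 10 min, stopped with HCl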
row,Binder,OD450 nm [OD450 nm]
1,B1,0.03
2,B2,1.63
3,B3,0.19
4,B4,0.03
5,B5,0.03
